Columns and labels:
[1] = target: oligomeric synthetic human Aβ1-42 preparation
[2] = target: monomeric synthetic human Aβ1-42 peptide

B1: recombinant NIa (nuclear inclusion a) protease of Turnip mosaic virus (TuMV), purified from E. coli (protein)
chain: SNSMFRGLRDYNPISNNICHLTNVSDGASNSLYGVGFGPLILTNRHLFERNNGELVIKSRHGEFVIKNTTQLHLLPIPDRDLLLIRLPKDIPPFPQKLGFRQPEKGERICMVGSNFQTKSITSVVSETSTIMPVENSQFWKHWISTKDGQCGSPMVSTKDGKILGLHSLANFQNSINYFAAFPDDFAEKYLHTIEAHEWVKHWKYNTSAISWGSLNIQASQPSGLFKVSKLISDLDSTAVYAQ
oligomeric Aβ level with NIa pre-incubated with NEM, Western blot (6E10) [1]: This NIa-mediated reduction of oligomeric Aβ was significantly blocked by NEM | oligomeric Aβ remaining after 3 hrs with NIa, densitometry of Western blot (6E10), relative to Aβ only [1]: only 19% of oligomeric Aβ remained | reduction of monomeric Aβ level, densitometry of Western blot (6E10), 3 hrs at 25 °C, without NEM [2]: NIa reduced Aβ levels by 64% in the absence of NEM

Source: patent US20130108613
